Experimental data from doi:10.1101/2024.02.20.581209 (bioRxiv, 2024).

T1: MglA (Myxococcus xanthus, UniProt Q1DB04 1-195)
T1 sequence: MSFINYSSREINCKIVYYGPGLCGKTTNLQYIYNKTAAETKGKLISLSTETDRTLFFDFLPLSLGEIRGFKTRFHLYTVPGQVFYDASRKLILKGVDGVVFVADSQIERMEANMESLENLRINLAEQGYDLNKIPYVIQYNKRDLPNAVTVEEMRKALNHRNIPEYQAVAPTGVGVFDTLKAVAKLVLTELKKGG


Legend:
[1] = molecular target: RomR-REC^141 (Myxococcus xanthus); test: SEC-MALS
[2] = molecular target: RomR-REC^125 (Myxococcus xanthus); test: ITC
[3] = molecular target: RomR-REC^141 (Myxococcus xanthus); test: ITC
[4] = molecular target: T1, MglA; test: ITC

stoichiometry N [1] | Kd [2] [µM] | stoichiometry N [2] | Kd [3] [µM] | stoichiometry N [3] | Kd [4] [µM] | stoichiometry N [4] | Molecule
1 |  |  |  |  |  |  | RomX (hexahistidine-tagged, end of the tag not told for this experiment) (natural protein)
 | 1.14 | 1.3 | 1.2 | 1.2 | 4.8 | 1.1 | RomX (N-terminal hexahistidine tagged construct) (natural protein, M. xanthus) MTDEEKVKAMRLARAIASDISLYNEQKIIKGIEQDNLFEVLKEELEEGRELYKSRVSQEIFTKMNFFERAINDIVLRSKAHVKSKIW
